One molecule from publication PMC4148193, “Chromatin Insulator Factors Involved in Long-Range DNA Interactions and Their Role in the Folding of the Drosophila Genome” (PLoS Genetics, 2014) can be followed below.

For one series, the target named is T1, CP190-BTB/POZ (Drosophila, UniProt Q24478 1-134).
T1 sequence: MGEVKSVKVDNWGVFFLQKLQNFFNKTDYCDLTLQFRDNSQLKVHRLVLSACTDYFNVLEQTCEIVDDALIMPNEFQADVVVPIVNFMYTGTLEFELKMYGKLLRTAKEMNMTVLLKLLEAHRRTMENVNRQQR
In words: fluorescence anisotropy; FA/FCS: 30 mM Tris/HCl pH 7.5, 100 mM NaCl, 20 uM ZnSO4, 5 mM mercaptoethanol, 0.01 mg/ml BSA, 0.004% Tween20, 2.5 nM DNA; EMSA: 150 mM NaCl, 30 mM Tris/HCl pH. The following applies: protein: recombinant; tags: His; chain copies: 2; blunt.

For the next series, the target named is T2, BEAF32 (BEAF32B);CP190-C (Drosophila;Drosophila, UniProt Q94513;Q24478 1-282;599-1096, |).
T2 sequence 1: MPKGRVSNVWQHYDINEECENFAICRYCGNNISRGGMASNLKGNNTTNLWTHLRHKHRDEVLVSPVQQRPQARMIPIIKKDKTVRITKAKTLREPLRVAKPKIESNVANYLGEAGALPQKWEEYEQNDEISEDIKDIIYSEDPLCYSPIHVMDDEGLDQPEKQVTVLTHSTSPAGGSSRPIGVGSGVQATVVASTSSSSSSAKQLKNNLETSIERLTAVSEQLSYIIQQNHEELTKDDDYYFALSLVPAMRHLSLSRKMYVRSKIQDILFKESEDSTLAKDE
T2 sequence 2: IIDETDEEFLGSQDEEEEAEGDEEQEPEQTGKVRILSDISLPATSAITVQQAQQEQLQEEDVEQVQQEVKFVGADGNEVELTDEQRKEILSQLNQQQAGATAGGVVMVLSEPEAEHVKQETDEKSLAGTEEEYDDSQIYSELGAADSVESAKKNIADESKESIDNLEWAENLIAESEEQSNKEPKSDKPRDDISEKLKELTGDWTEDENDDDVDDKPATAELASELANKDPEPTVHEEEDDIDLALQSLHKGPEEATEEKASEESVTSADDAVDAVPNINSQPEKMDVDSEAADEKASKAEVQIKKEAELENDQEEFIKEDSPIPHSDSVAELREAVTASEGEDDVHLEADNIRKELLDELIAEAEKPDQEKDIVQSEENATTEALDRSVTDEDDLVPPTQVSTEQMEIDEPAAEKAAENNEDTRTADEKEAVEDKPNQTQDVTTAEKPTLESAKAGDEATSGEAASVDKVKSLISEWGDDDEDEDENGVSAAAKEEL
In words: FCS/PIE-FCCS; 400 nM BEAF32, 50 nM CP190-C; diffusion time slightly decreased, BEAF32 stays bound, no bridging; FA/FCS: 30 mM Tris/HCl pH 7.5, 100 mM NaCl, 20 uM ZnSO4, 5 mM mercaptoethanol, 0.01 mg/ml BSA, 0.004% Tween20, 2.5 nM DNA; EMSA: 150 mM NaCl, 30 mM Tris/HCl pH. The conditions noted are these: protein: recombinant;recombinant; tags: N-term MBP; C-term 6xHis;N-term 6xHis; blunt.

The target in another series is T3, BEAF32 (BEAF32B);CP190 (Drosophila;Drosophila, UniProt Q94513;Q24478 1-282;1-1096, |).
T3 sequence 1: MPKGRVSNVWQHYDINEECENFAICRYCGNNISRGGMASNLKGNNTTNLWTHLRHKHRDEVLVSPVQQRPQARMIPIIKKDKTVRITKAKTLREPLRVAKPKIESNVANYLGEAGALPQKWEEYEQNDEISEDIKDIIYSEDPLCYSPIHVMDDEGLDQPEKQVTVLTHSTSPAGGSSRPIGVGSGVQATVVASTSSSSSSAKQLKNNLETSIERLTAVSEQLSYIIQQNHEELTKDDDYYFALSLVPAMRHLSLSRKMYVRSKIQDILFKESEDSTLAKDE
T3 sequence 2: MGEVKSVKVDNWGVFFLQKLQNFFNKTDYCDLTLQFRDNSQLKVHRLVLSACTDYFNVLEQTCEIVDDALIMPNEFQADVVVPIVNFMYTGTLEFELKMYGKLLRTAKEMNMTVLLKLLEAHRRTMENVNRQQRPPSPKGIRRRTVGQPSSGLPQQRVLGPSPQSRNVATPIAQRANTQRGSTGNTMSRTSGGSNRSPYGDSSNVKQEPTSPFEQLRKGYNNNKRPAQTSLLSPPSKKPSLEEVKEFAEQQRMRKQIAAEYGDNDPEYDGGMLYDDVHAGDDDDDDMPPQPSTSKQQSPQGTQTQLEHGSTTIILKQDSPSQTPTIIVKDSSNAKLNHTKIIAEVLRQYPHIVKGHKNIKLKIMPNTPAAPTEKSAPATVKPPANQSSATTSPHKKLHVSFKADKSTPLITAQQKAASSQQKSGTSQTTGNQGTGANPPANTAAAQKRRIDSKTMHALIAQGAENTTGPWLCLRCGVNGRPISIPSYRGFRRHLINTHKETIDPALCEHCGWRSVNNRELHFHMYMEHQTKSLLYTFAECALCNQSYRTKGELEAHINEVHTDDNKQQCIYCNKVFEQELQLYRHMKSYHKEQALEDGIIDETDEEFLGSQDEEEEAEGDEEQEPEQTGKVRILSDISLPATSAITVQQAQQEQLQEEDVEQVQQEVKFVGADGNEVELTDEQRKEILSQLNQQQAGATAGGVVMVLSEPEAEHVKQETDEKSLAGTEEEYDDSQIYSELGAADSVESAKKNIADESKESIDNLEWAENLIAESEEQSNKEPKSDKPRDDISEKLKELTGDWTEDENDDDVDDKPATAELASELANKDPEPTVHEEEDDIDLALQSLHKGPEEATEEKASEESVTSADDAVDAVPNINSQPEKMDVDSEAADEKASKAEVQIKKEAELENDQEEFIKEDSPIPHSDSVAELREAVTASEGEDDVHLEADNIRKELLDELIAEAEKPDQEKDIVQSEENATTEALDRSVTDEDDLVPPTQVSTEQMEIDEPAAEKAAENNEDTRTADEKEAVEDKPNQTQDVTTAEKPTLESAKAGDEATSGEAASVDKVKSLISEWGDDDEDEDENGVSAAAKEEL
Put plainly: FCS/PIE-FCCS; 400 nM BEAF32, 50 nM CP190; cross-correlation 18±6%, 65±22% of complexes bridged; FA/FCS: 30 mM Tris/HCl pH 7.5, 100 mM NaCl, 20 uM ZnSO4, 5 mM mercaptoethanol, 0.01 mg/ml BSA, 0.004% Tween20, 2.5 nM DNA; EMSA: 150 mM NaCl, 30 mM Tris/HCl pH. The conditions noted are these: protein: recombinant;recombinant; tags: N-term MBP; C-term 6xHis;N-term 6xHis; blunt.

The target in the next series is T4, CP190-C (Drosophila, UniProt Q24478 599-1096).
T4 sequence: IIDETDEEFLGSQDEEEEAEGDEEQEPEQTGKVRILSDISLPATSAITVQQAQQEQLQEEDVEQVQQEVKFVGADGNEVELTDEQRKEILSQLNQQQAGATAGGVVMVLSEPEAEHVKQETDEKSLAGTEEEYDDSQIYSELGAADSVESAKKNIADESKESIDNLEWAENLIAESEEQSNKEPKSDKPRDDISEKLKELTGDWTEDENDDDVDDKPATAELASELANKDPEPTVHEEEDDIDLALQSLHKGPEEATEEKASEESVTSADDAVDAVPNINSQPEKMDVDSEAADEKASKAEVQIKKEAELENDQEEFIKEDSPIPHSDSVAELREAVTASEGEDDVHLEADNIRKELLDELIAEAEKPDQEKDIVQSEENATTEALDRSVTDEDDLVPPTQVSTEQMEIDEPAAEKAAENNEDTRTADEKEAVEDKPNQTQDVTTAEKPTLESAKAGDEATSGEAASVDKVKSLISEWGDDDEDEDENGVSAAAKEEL
In words: FCS; 50 nM; FA/FCS: 30 mM Tris/HCl pH 7.5, 100 mM NaCl, 20 uM ZnSO4, 5 mM mercaptoethanol, 0.01 mg/ml BSA, 0.004% Tween20, 2.5 nM DNA; EMSA: 150 mM NaCl, 30 mM Tris/HCl pH. The conditions noted are these: protein: recombinant; tags: N-term 6xHis; blunt.

B1: DNAS (dsDNA)
DNA 1: AGAAGTCAGCGCGATAGCATCGATATTTTCGTGACACGCTTGTCATCCGATAGGTAGT
DNA 2: ACTACCTATCGGATGACAAGCGTGTCACGAAAATATCGATGCTATCGCGCTGACTTCT
Take B1: the binding result with CP190-BTB/POZ is given as “no binding”; with BEAF32 (BEAF32B);CP190-C it was “binds”; with BEAF32 (BEAF32B);CP190 it was “binds”; with CP190-C it was “no binding”.
